According to the supplement of paper PMC7125110:
± gives the standard error. Fewer inactive variants are shown than the library holds.

B1: glmS ribozyme (parent)
chain: AUAAAAGCGCCAGAACUACAGAAAUGUAGUUGACGAGGAGGAGGUUUAUCGAAUUUUCGGCGGAUGCCUCCAAA

What was measured:
Conditions in all cases: with glucosamine-6-phosphate
glucosamine-6-phosphate [1] = variants of: B1; experiment: self-cleavage kobs at 160 uM GlcN6P; higher = faster cleavage; RNA array
In short: (§1)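 Tracking of barcoded ribozyme variants used a hybridised Cy3 probe at 37 °C, after in situ transcription by E. coli RNA polymerase on sequenced MiSeq chips. The flowed solution held 40 μM to 10 mM glucosamine-6-phosphate in HEPES/KCl/Mg(OAc)2 buffer, and imaging ran over ~14 h. kobs was taken from exponential decay fits of normalised per-tile medians, and kcat and KM from weighted Michaelis–Menten fits.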

glucosamine-6-phosphate [2] = variants of: B1; experiment: self-cleavage kobs at 2500 uM GlcN6P; higher = faster cleavage; RNA array
In short: as §1

glucosamine-6-phosphate [3] = variants of: B1; experiment: self-cleavage kobs at 640 uM GlcN6P; higher = faster cleavage; RNA array
In short: as §1

glucosamine-6-phosphate [4] = variants of: B1; experiment: self-cleavage kobs at 10000 uM GlcN6P; higher = faster cleavage; RNA array
In short: as §1

Variant	self-cleavage kobs at 160 uM GlcN6P (glucosamine-6-phosphate [1]) [s⁻¹]	self-cleavage kobs at 2500 uM GlcN6P (glucosamine-6-phosphate [2]) [s⁻¹]	self-cleavage kobs at 640 uM GlcN6P (glucosamine-6-phosphate [3]) [s⁻¹]	self-cleavage kobs at 10000 uM GlcN6P (glucosamine-6-phosphate [4]) [s⁻¹]
A36G G40A G44A U46G G51C	< 1e-05	< 1e-05	–	–
C16A U49C	< 1e-05	–	< 1e-05	< 1e-05
G43C A48G C71G	< 1e-05	< 1e-05	< 1e-05	–
U49C U57C G60A G63A	< 1e-05	< 1e-05	< 1e-05	–
G43U U69C C70G	< 1e-05	–	< 1e-05	–
C16G U46A C50A U69G	0.000562 ± 0.00018	–	–	–
G51U A64U	< 1e-05	< 1e-05	< 1e-05	< 1e-05
A39C G41U U46G	< 1e-05	–	–	–
G38C A64G	< 1e-05	–	< 1e-05	–
G37U A42U A53G	< 1e-05	< 1e-05	–	–
U49G G63U	< 1e-05	< 1e-05	–	< 1e-05
A36U C61G C70G	6.28e-05 ± 2.3e-05	–	9.55e-05 ± 2.6e-05	–
C34U U49G A52U	< 1e-05	< 1e-05	–	< 1e-05
G60U G63C C70G	< 1e-05	–	< 1e-05	–
G38A A42G G60A	< 1e-05	–	–	–
A33C G41A	< 1e-05	–	< 1e-05	–
G43U U57A	< 1e-05	< 1e-05	–	–
U49C G51C	< 1e-05	< 1e-05	< 1e-05	–
C16G G51U U56C C70U	< 1e-05	–	< 1e-05	–
U31C G43U A48U U55A	< 1e-05	< 1e-05	< 1e-05	–
G29A G35A	< 1e-05	< 1e-05	–	–
A15G U49G G63U C67A	< 1e-05	–	< 1e-05	–
G62A U65G	< 1e-05	< 1e-05	< 1e-05	< 1e-05
A52C A53G G62C	< 1e-05	–	–	< 1e-05
G51U A52U U65G	< 1e-05	< 1e-05	< 1e-05	–
G41C U54G C67U	< 1e-05	–	–	–
C34G A64U C67U	< 1e-05	–	< 1e-05	–

Variant	self-cleavage kobs at 160 uM GlcN6P (glucosamine-6-phosphate [1]) [s⁻¹]	self-cleavage kobs at 2500 uM GlcN6P (glucosamine-6-phosphate [2]) [s⁻¹]	self-cleavage kobs at 640 uM GlcN6P (glucosamine-6-phosphate [3]) [s⁻¹]	self-cleavage kobs at 10000 uM GlcN6P (glucosamine-6-phosphate [4]) [s⁻¹]
A33G A53C C71U	< 1e-05	–	–	–
U30A G41U U57G G62A	< 1e-05	< 1e-05	< 1e-05	–
G38C U45A	< 1e-05	–	< 1e-05	–
G43C C71G	< 1e-05	< 1e-05	< 1e-05	–
A48C G62U	< 1e-05	< 1e-05	< 1e-05	–
U31G G41U U47G G62U A64U C70G	< 1e-05	–	< 1e-05	–
A48G G66C	< 1e-05	< 1e-05	< 1e-05	< 1e-05
A42U U45C A52G G59U	< 1e-05	–	–	–
U47G C50A A64G U69G	0.000158 ± 4.6e-05	0.000142 ± 3.1e-05	0.000155 ± 3.9e-05	3.49e-05 ± 1.6e-05
G38C G59C C67G	< 1e-05	< 1e-05	–	–
A33U G35C U57C U65C	< 1e-05	< 1e-05	< 1e-05	–
A33G G37A A39C G63C C68G	< 1e-05	–	< 1e-05	–
U47A C58A	2.53e-05 ± 1.2e-05	0.00024 ± 2.9e-05	7.69e-05 ± 1.4e-05	–
A15C A64U	< 1e-05	–	< 1e-05	–
C19A U65A	0.000107 ± 4.8e-05	0.00137 ± 0.00051	–	–
U45G G51C A64C	< 1e-05	–	< 1e-05	–
U45C C61A	< 1e-05	< 1e-05	–	< 1e-05
C50G U54A U65A	0.00014 ± 3.8e-05	5.15e-05 ± 2e-05	–	5.29e-05 ± 1.5e-05
A48G U57A	< 1e-05	< 1e-05	< 1e-05	–
U55G G62C	< 1e-05	< 1e-05	< 1e-05	< 1e-05
C16U U55C	0.00153 ± 0.00037	0.00585 ± 0.0013	–	–
A15G G40A A53G	0.000772 ± 0.00017	0.00292 ± 0.00062	–	–
G29A C50G	0.000108 ± 3.1e-05	0.00038 ± 0.00019	3.64e-05 ± 1.5e-05	–
A52U G60A G66C	< 1e-05	–	< 1e-05	–
G37U C58A	< 1e-05	–	–	< 1e-05
C16G G41C G59A	< 1e-05	< 1e-05	< 1e-05	–
G41C G51C A64C	< 1e-05	–	–	–

Variant	self-cleavage kobs at 160 uM GlcN6P (glucosamine-6-phosphate [1]) [s⁻¹]	self-cleavage kobs at 2500 uM GlcN6P (glucosamine-6-phosphate [2]) [s⁻¹]	self-cleavage kobs at 640 uM GlcN6P (glucosamine-6-phosphate [3]) [s⁻¹]	self-cleavage kobs at 10000 uM GlcN6P (glucosamine-6-phosphate [4]) [s⁻¹]
G32U C34A G40C U57A G62U	< 1e-05	–	–	–
A42G U46G U65C C68U	< 1e-05	–	–	–
C34U A52C A64U C67U	< 1e-05	< 1e-05	< 1e-05	–
G29A A39C C61G	< 1e-05	–	< 1e-05	< 1e-05
G35C C71A	< 1e-05	< 1e-05	< 1e-05	–
G37U G51C A52U G63U	< 1e-05	–	–	–
A39U G41A G62U	< 1e-05	< 1e-05	–	–
U31C G32C A33U C34A U49A	< 1e-05	< 1e-05	–	< 1e-05
U46G G60C A64U	< 1e-05	< 1e-05	–	< 1e-05
G32C A36U C50A C70G	0.0002 ± 3.9e-05	0.000299 ± 0.0001	0.000332 ± 8.2e-05	–
G29U A42G A53U	0.000316 ± 6.8e-05	0.00271 ± 0.00069	0.00125 ± 0.00026	–
C16G A52G U69G	9.5e-05 ± 3e-05	0.000143 ± 3.9e-05	–	–
A36C G40A	< 1e-05	–	< 1e-05	< 1e-05
A36U U55C	< 1e-05	–	< 1e-05	–
G35C G37C U46C G63U	< 1e-05	< 1e-05	< 1e-05	–
A36G G41A G63U	< 1e-05	–	< 1e-05	–
C16A G35A G43A	< 1e-05	< 1e-05	< 1e-05	–
C34G G38U G44C U49C	< 1e-05	–	–	–
G59C G62A	< 1e-05	< 1e-05	< 1e-05	–
C50G G63A A64U	0.000145 ± 4.6e-05	–	0.000136 ± 4.5e-05	–
U31G G43U G66U	< 1e-05	< 1e-05	–	–
G44C C50U U54C	< 1e-05	–	< 1e-05	–
U31A A33G A48G	< 1e-05	–	–	–
C16U G37U C68G U69G	4.65e-05 ± 2.2e-05	4.23e-05 ± 1.8e-05	0.000144 ± 7.1e-05	–
A33U G38U G41C G66U	< 1e-05	< 1e-05	–	–
C34A C58A	< 1e-05	< 1e-05	< 1e-05	< 1e-05
G51U C61A C71A	< 1e-05	< 1e-05	< 1e-05	–

Variant	self-cleavage kobs at 160 uM GlcN6P (glucosamine-6-phosphate [1]) [s⁻¹]	self-cleavage kobs at 2500 uM GlcN6P (glucosamine-6-phosphate [2]) [s⁻¹]	self-cleavage kobs at 640 uM GlcN6P (glucosamine-6-phosphate [3]) [s⁻¹]	self-cleavage kobs at 10000 uM GlcN6P (glucosamine-6-phosphate [4]) [s⁻¹]
A33C G40C A52G G63A	< 1e-05	< 1e-05	< 1e-05	–
A36C A42G	< 1e-05	< 1e-05	–	< 1e-05
C34A U57G	< 1e-05	–	–	< 1e-05
A53G C58A C68G	0.000121 ± 4.6e-05	0.000107 ± 2.5e-05	–	–
G66A U69G	8.36e-05 ± 2.3e-05	0.00012 ± 2.1e-05	0.000427 ± 0.0001	4.74e-05 ± 1.7e-05
G43C G60C C68U	< 1e-05	–	< 1e-05	–
U45C U47C G62U C68U	< 1e-05	–	–	–
A15C A36U A39G	< 1e-05	< 1e-05	< 1e-05	< 1e-05
C16A G38C C68U	< 1e-05	–	< 1e-05	–
C50A C67U C68U	6.13e-05 ± 3.1e-05	0.000153 ± 6.2e-05	6.87e-05 ± 2.8e-05	–
G40C A42G A53C	5.62e-05 ± 1.9e-05	0.000564 ± 0.00013	0.00018 ± 6.6e-05	–
G35C U49G	< 1e-05	< 1e-05	< 1e-05	–
A33U G38A A39G	< 1e-05	–	< 1e-05	–
C16A A33G A64G C71G	8.57e-05 ± 3.4e-05	6.35e-05 ± 2.8e-05	–	–
G37U C50G	7.65e-05 ± 3.7e-05	–	–	–
A14U U45A U46C	0.000306 ± 0.0001	0.00191 ± 0.00053	0.00108 ± 0.00027	–
A15C A42U U46G C50G	< 1e-05	< 1e-05	< 1e-05	–
G59U C67U U69A	6.91e-05 ± 2.5e-05	–	–	–
G59C G63A	< 1e-05	–	< 1e-05	< 1e-05
G44A U56A C70U	< 1e-05	–	< 1e-05	–
U57C C58U	< 1e-05	–	–	–
G29U G35U G38U A52G	< 1e-05	–	< 1e-05	–
G40U U49C U65G	< 1e-05	< 1e-05	–	–
A36U G63U	< 1e-05	< 1e-05	< 1e-05	–
